Residue numbers refer to the chain shown, from its start.
T1: human IL-18Rβ ECD Fc fusion (118-AP-100, R&D Systems) (human, UniProt O95256 20-356)
T1 construct: Bought protein; also called hIL-18Rβ; recombinant human IL-18Rb; not shown: Fc tag of the bought fusion protein, not described
T1 sequence: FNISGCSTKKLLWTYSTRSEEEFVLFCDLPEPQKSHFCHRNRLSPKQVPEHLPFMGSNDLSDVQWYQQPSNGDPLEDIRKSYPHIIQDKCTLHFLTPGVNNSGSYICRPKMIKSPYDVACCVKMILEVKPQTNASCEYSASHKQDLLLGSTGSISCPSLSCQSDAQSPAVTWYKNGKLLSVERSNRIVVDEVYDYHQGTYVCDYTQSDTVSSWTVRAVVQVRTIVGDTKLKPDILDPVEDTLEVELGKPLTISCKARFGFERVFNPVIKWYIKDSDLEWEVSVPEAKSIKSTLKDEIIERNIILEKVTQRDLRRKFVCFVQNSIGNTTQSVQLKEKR

B1: Fab A3 (Fab)
heavy: EVQLVESGGGLVQPGGSLRLSCAASGFNLYSSYIHWVRQAPGKGLEWVASIYSSSGYTYYADSVKGRFTISADTSKNTAYLQMNSLRAEDTAVYYCARSVHSYYSSAAYYAMDYWGQGTLVTVSSASTKGPSVFPLAPSSKSTSGGTAALGCLVKDYFPEPVTVSWNSGALTSGVHTFPAVLQSSGLYSLSSVVTVPSSSLGTQTYICNVNHKPSNTKVDKKVEPKSCDKTHT
light: DIQMTQSPSSLSASVGDRVTITCRASQSVSSAVAWYQQKPGKAPKLLIYSASSLYSGVPSRFSGSRSGTDFTLTISSLQPEDFATYYCQQSYFLITFGQGTKVEIKRTVAAPSVFIFPPSDSQLKSGTASVVCLLNNFYPREAKVQWKVDNALQSGNSQESVTEQDSKDSTYSLSSTLTLSKADYEKHKVYACEVTHQGLSSPVTKSFNRGECGGSDYKDDDDK
notes: also called FA3
B2: 3131 AM2-36 (Fab, V domains shown)
VH: EVQLVESGGGLVQPGGSLRLSCAASGFNLYYSSMHWVRQAPGKGLEWVASIYSSSGSTSYADSVKGRFTISADTSKNTAYLQMNSLRAEDTAVYYCARSSFSHGYGWYGLDYWGQGTLVTVSS
VL: DIQMTQSPSSLSASVGDRVTITCRASQSVSSAVAWYQQKPGKAPKLLIYSASSLYSGVPSRFSGSRSGTDFTLTISSLQPEDFATYYCQQYGYHYAGLITFGQGTKVEIK
notes: Fab
B3: 3131 AM2-S-T (Fab, V domains shown)
VH: B2 VH with S55Y, S57Y, S59Y
VL: B2 VL with S50T
notes: Fab
B4: 3131 AM2-37 (Fab, V domains shown)
VH: B2 VH
VL: B2 VL with Y95S
notes: Fab
B5: 3131 AM2-S-H (Fab, V domains shown)
VH: B2 VH with S55Y, S57Y, S59Y
VL: B2 VL with S50H
notes: Fab
B6: 3131 AM2-S-G (Fab, V domains shown)
VH: B2 VH with S55Y, S57Y, S59Y
VL: B2 VL with S50G
notes: Fab
B7: 3131 AM2-35 (Fab, V domains shown)
VH: B2 VH with S55Y, S57Y, S59Y
VL: B2 VL with Y95S
notes: Fab
B8: 3131 AM2-32 (Fab, V domains shown)
VH: B2 VH with S55Y, S57Y, S59Y
VL: B2 VL with A51S, L54V
notes: Fab
B9: 3131 AM2-33 (Fab, V domains shown)
VH: B2 VH with S55Y, S57H
VL: B2 VL
notes: Fab
B10: 3131 AM2-S-Y (Fab, V domains shown)
VH: B2 VH with S55Y, S57Y, S59Y
VL: B2 VL with S50Y
notes: Fab
B11: 3131 AM2-5 (Fab, V domains shown)
VH: B2 VH with S57D, S59H
VL: B2 VL
notes: Fab
B12: 3131 AM2-1 (Fab, V domains shown)
VH: B2 VH with S55Y, S57Y, S59Y
VL: B2 VL with Y95H
notes: Fab
B13: 3131 AM2-4 (Fab, V domains shown)
VH: B2 VH with S59C
VL: B2 VL
notes: Fab
B14: 3131 AM2-9 (Fab, V domains shown)
VH: B2 VH with S55Y, S57Y, S59Y
VL: B2 VL with Y95N
notes: Fab
B15: 3131 AM2-6 (Fab, V domains shown)
VH: B2 VH with S55H, S57G, S59N
VL: B2 VL
notes: Fab
B16: 3131 AM2-2 (Fab, V domains shown)
VH: B2 VH with S55H, S57R, S59G
VL: B2 VL with L54R, Y55D
notes: Fab
B17: 3131 AM2-14 (Fab, V domains shown)
VH: B2 VH with S55Y, S57Y, S59Y
VL: B2 VL with Y95G
notes: Fab
B18: 3131 AM2-7 (Fab, V domains shown)
VH: B2 VH with S55H, S57G, S59Y
VL: B2 VL with Y95D
notes: Fab
B19: 3131 AM2-13 (Fab, V domains shown)
VH: B2 VH with S55Y, S57Y, S59Y
VL: B2 VL with Y95D
notes: Fab
B20: 3131 AM2-3 (Fab, V domains shown)
VH: B2 VH with S57Y
VL: B2 VL
notes: Fab
B21: 3131 AM2-28 (Fab, V domains shown)
VH: B2 VH with S55Y, S57Y, S59Y
VL: B2 VL with A51R, L54D, Y55S
notes: Fab
B22: 3131 AM2-17 (Fab, V domains shown)
VH: B2 VH with S55H, S57N, S59D
VL: B2 VL
notes: Fab
B23: 3131 AM2-31 (Fab, V domains shown)
VH: B2 VH with S55Y, S57Y, S59Y
VL: B2 VL with A51E
notes: Fab
B24: 3131 AM2-21 (Fab, V domains shown)
VH: B2 VH with S55Y, S57Y, S59Y
VL: B2 VL with A51G, L54G, Y55R
notes: Fab
B25: 3131 AM2-24 (Fab, V domains shown)
VH: B2 VH with S55Y, S57Y, S59Y
VL: B2 VL with A51D
notes: Fab
B26: 3131 AM2-26 (Fab, V domains shown)
VH: B2 VH with S55Y, S57Y, S59Y
VL: B2 VL with A51E, Y55S
notes: Fab
B27: 3131 AM2-30 (Fab, V domains shown)
VH: B2 VH with S55Y, S57Y, S59Y
VL: B2 VL with L54E, Y55R
notes: Fab
B28: 3131 AM2-15 (Fab, V domains shown)
VH: B2 VH with S57D, S59G
VL: B2 VL
notes: Fab
B29: 3131 AM2-18 (Fab, V domains shown)
VH: B2 VH with S55G
VL: B2 VL
notes: Fab
B30: 3131 AM2-25 (Fab, V domains shown)
VH: B2 VH with S55Y, S57Y, S59Y
VL: B2 VL with L54R, Y55D
notes: Fab

molecular target: T1, human IL-18Rβ ECD Fc fusion …; assay: biolayer interferometry (BLI) after legend paragraph 36; drawn table, head kd (10^-4 s^-1), Human receptor

koff [s⁻¹] | Binder
0.0015 | B1

molecular target: T1, human IL-18Rβ ECD Fc fusion …; assay: SPR (Table 5 title), Fab on human receptor

Kd [nM] | koff [s⁻¹] | kon [M⁻¹ s⁻¹] | Binder
78 | 0.0016 | 20000 | B1

molecular target: T1, human IL-18Rβ ECD Fc fusion …; assay: competitive binding ELISA with soluble receptor (drawn table, column IC50 (nM))

IC50 [nM] | Binder
105 | B1

molecular target: T1, human IL-18Rβ ECD Fc fusion …; assay: ELISA on recombinant human IL-18Rβ, normalised OD 450 nm, Fab with PBS or with saturating IgG 3131 [bottom plot]
Description: (§1) The results are presented in FIG. 9, in which the binding signals for purified. […] Error bars represent standard deviation of replicate measurements.

binding result | Binder
binds | B2
binds | B3
binds | B4
binds | B5
binds | B6
binds | B7
binds | B8
binds | B9
binds | B10

molecular target: T1, human IL-18Rβ ECD Fc fusion …; assay: ELISA on recombinant human IL-18Rβ, normalised OD 450 nm, Fab with PBS or with saturating IgG 3131 [top plot]
Description: as §1

binding result | Binder
binds | B11
binds | B12
binds | B13
binds | B14
binds | B15
binds | B16
binds | B17
binds | B18
binds | B19
binds | B20

molecular target: T1, human IL-18Rβ ECD Fc fusion …; assay: ELISA on recombinant human IL-18Rβ, normalised OD 450 nm, Fab with PBS or with saturating IgG 3131 [middle plot]
Description: as §1

binding result | Binder
binds | B21
binds | B22
binds | B23
binds | B24
binds | B25
binds | B26
binds | B27
binds | B28
binds | B29
binds | B30

molecular target: T1, human IL-18Rβ ECD Fc fusion …; assay: biolayer interferometry (BLI) after legend paragraph 36; drawn table, head ka (10^4 M^-1 s^-1), Human receptor

kon [M⁻¹ s⁻¹] | Binder
51000 | B1

molecular target: T1, human IL-18Rβ ECD Fc fusion …; assay: multipoint direct binding ELISA (drawn table, column EC50 (nM))

EC50 [nM] | Binder
86 | B1

molecular target: T1, human IL-18Rβ ECD Fc fusion …; assay: biolayer interferometry (BLI) after legend paragraph 36; drawn table, head KD (nM), Human receptor

Kd [nM] | Binder
30 | B1
